Assay results taken from patent US20230151091A1 (NEW YORK UNIVERSITY, published 2023).

What was measured:
mouse MuSK [1] = target: T1, mouse MuSK (mouse, UniProt Q61006 22-494, limits assumed); assay: Biacore, MuSK on chip, association pH 7.4, dissociation pH 5.5
T1 construct: Coated on ELISA plates or on the Biacore chip; also called full length mouse MuSK; mouse MuSK (in house produced in HEK293 cells)
T1 sequence (looked up): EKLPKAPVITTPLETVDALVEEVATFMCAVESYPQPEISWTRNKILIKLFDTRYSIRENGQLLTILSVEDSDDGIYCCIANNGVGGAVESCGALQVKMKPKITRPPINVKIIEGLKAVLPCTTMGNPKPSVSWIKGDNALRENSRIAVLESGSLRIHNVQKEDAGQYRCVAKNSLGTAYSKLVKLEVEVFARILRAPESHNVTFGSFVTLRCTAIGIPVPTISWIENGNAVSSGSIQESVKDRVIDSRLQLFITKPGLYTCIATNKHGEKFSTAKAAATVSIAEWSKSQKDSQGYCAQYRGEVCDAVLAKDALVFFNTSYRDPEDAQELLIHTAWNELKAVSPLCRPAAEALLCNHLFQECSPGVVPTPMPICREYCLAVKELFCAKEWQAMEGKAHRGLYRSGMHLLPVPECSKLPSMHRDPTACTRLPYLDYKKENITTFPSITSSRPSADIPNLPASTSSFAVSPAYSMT
Method: (§1) For affinity determination, a CMS chip was coated with cynomolgus monkey, rat and mouse MuSK (200RU) and 66.7 nM of antibody was applied and kinetic parameters calculated (Table 8). The following conclusions could be drawn: (1) 3B2g1m3 and 3B2g2m3 (m3 variants) show significant drop in affinity for MuSK for all species tested; (2) 3B2g1m2 and 3B2g2m2 (m2 variants) show some drop in affinity for MuSK; (3) 3B2g1m1, 3B2g2m1, 3B2g1m4, 3B2g2m4 (ml and m4 variants) show no drop in affinity for MuSK for all species tested; and (4) for all clones there is no difference between g1 and g2 variants (VL methionine versus serine in CDR3).
(§2) In order to study pH dependent binding of our antibodies to MuSK, the same Biacore was used as above, but now dissociation was done at pH 5.5 instead of pH 7.4. […] The following conclusions could be drawn for the different variants: (1) 3B2g1m3 and 3B2g2m3 (m3 variants) show significant drop in affinity for MuSK for all species tested; (2) 3B2g1m2 and 3B2g2m2 (m2 variants) show some drop in affinity for MuSK; (3) 3B2g1m1, 3B2g2m1, 3B2g1m4, 3B2g2m4 (m1 and m4 variants) show no drop in affinity for MuSK for all species tested; and (4) for all clones there is no difference between g1 and g2 variants (VL methionine versus serine in CDR3).

rat MuSK [2] = target: T2, rat MuSK (rat, UniProt Q62838 22-494, limits assumed); assay: as above
T2 construct: Coated on Biacore chip (200RU) or ELISA plate
T2 sequence (looked up): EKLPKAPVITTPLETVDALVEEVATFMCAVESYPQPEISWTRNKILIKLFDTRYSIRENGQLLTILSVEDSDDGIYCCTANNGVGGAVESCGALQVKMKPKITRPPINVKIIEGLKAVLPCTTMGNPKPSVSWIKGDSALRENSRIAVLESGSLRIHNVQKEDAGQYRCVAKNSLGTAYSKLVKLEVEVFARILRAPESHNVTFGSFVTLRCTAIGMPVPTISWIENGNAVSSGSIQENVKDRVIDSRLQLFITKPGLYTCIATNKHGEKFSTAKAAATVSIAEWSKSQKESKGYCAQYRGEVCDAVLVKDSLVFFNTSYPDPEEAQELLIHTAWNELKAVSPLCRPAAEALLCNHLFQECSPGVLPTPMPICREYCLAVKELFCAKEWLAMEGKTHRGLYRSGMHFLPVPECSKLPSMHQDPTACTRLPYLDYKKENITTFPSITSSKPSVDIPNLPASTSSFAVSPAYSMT
Method: as §1, §2

cynomolgus monkey MuSK [3] = target: T3, cynomolgus monkey MuSK (cynomolgus monkey, UniProt A0A2K5USF6 24-487); assay: as above
Method: as §1, §2

mouse MuSK [4] = target: T1, mouse MuSK; assay: Biacore, MuSK on chip (200RU), 66.7 nM mAb, dissociation pH 7.4
Method: as §1

rat MuSK [5] = target: T2, rat MuSK; assay: as above
Method: as §1

cynomolgus monkey MuSK [6] = target: T3, cynomolgus monkey MuSK; assay: as above
Method: as §1

[7] = target: T4, hECD: full-length extracellular region of human MuSK (E22 to T495) with C-terminal Avi- and His6-tags (human, UniProt O15146 22-495, biotinylated in vitro using the BirA enzyme); assay: bead-binding assay, Fab format: biotinylated antigen on streptavidin beads, flow cytometry, 1:1 fit; average ± s.d., n=3
T4 construct: also called human ECD; not shown: Avi- and His6-tags
T4 sequence: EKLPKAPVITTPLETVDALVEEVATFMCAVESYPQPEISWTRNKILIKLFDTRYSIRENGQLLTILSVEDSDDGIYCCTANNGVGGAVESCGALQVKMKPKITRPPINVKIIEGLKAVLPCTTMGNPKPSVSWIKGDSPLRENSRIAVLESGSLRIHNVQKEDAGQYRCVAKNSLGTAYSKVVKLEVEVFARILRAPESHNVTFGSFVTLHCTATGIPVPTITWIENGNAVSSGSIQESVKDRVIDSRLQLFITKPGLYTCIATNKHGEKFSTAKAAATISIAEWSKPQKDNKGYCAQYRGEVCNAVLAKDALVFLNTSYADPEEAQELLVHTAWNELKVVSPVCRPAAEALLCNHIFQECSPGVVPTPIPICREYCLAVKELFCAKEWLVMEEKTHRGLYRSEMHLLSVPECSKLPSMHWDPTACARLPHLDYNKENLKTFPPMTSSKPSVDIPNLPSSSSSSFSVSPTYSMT

[8] = target: T5, mFz: Fz domain and C-terminal flanking sequence of mouse MuSK (D307 to T494) with C-terminal Avi- and … (mouse, UniProt Q61006 307-494, limits assumed, biotinylated in vitro using the BirA enzyme); assay: as above
T5 construct: also called mouse Fz; not shown: Avi- and His6-tags
T5 sequence (looked up): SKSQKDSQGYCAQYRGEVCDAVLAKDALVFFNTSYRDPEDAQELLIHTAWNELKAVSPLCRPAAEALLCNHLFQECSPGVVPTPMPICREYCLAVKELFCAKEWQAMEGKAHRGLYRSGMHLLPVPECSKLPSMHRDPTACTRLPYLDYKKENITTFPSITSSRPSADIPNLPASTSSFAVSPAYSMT

[9] = target: T6, hFz: Fz domain and C-terminal flanking sequence of human MuSK (K314-T495) with C-terminal Avi- and His6-tags (human, UniProt O15146 314-495, biotinylated in vitro using the BirA enzyme); assay: as above
T6 construct: also called human Fz; not shown: Avi- and His6-tags
T6 sequence: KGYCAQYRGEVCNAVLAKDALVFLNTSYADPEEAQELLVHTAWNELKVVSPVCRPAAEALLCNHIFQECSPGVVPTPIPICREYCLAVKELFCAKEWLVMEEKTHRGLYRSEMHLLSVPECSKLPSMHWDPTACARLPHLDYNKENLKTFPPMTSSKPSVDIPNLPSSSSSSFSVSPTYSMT

[10] = target: T7, mECD: full-length extracellular region of mouse MuSK (E22 to T494) with C-terminal Avi- and His6-tags (mouse, UniProt Q61006 22-494, biotinylated in vitro using the BirA enzyme); assay: as above
T7 construct: range 22-494; also called mouse ECD; not shown: Avi- and His6-tags
T7 sequence (looked up): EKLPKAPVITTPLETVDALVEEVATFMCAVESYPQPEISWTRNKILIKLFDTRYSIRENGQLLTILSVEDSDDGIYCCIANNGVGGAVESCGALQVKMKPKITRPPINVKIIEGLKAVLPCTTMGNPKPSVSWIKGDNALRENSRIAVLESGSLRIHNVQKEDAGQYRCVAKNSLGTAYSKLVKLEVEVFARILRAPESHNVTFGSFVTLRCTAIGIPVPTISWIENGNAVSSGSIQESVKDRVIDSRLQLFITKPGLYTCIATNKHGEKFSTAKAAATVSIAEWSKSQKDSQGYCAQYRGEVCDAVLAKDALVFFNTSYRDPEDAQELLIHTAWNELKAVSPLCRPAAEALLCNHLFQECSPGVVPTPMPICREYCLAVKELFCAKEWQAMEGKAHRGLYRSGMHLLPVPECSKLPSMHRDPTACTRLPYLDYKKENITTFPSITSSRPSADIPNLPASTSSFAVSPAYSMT

T3 sequence (A0A2K5USF6 entry or part of it): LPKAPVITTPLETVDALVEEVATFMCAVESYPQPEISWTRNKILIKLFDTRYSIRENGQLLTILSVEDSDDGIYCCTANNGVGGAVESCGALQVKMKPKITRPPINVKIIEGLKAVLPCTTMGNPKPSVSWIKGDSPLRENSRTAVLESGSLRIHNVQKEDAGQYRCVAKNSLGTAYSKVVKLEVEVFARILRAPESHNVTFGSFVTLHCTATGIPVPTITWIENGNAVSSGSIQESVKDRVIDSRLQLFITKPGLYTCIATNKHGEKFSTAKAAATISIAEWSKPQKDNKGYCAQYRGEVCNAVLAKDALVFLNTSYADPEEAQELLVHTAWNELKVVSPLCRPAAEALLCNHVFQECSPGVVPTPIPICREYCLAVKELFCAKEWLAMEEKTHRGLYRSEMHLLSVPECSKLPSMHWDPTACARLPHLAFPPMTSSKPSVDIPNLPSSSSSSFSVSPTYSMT

Row | Binder | R0 (mouse MuSK [1]) | koff (mouse MuSK [1]) | kon (mouse MuSK [1]) | R0 (rat MuSK [2]) | koff (rat MuSK [2]) | kon (rat MuSK [2]) | R0 (cynomolgus monkey MuSK [3]) | koff (cynomolgus monkey MuSK [3]) | kon (cynomolgus monkey MuSK [3]) | R0 (mouse MuSK [4]) | koff (mouse MuSK [4]) | kon (mouse MuSK [4]) | R0 (rat MuSK [5]) | koff (rat MuSK [5]) | kon (rat MuSK [5]) | R0 (cynomolgus monkey MuSK [6]) | koff (cynomolgus monkey MuSK [6]) | kon (cynomolgus monkey MuSK [6]) | Kd [7] | Kd [8] | further results
1 | 3B2g2m1 (antibody, human IgG1, V domains shown, human IgG1-LALA backbone; produced in HEK293 cells; also called MuSK agonist antibody 3B2g2m1; MuSK-mAb 3B2g2m1) VH: EVQLLESGGGLVQPGGSLRLSCAASGFTFSDYGMSWVRQAPGKGLEWVSAIPWSGGSTYYKESVKGRFTISRDNSKNTLYLQMNSLRAEDTAVYYCAKRSGRIAFGALDAWGQGTLVTVSS VL: QTVVTQEPSFSVSPGGTVTLTCGLSSGSVTSSNYPDWYQQTPGQAPRTLIYSTDSRHSGVPDRFSGSILGNKAALTITGAQADDESDYYCGLYSYSGSKNYVFGGGTKLTVL | 193 RU | 0.00339 s⁻¹ | 1.18e+06 M⁻¹ s⁻¹ | 174 RU | 0.00555 s⁻¹ | 1.15e+06 M⁻¹ s⁻¹ | 151 RU | 0.00288 s⁻¹ | 850000 M⁻¹ s⁻¹ | 195 RU | 0.00104 s⁻¹ | 1.32e+06 M⁻¹ s⁻¹ | 160 RU | 0.00193 s⁻¹ | 1.4e+06 M⁻¹ s⁻¹ | 144 RU | 0.00109 s⁻¹ | 890000 M⁻¹ s⁻¹ |  |  | 
2 | 3B2g1m1 (antibody, human IgG1, V domains shown, human IgG1-LALA backbone; produced in HEK293 cells) VH: EVQLLESGGGLVQPGGSLRLSCAASGFTFSDYGMSWVRQAPGKGLEWVSAIPWSGGSTYYKESVKGRFTISRDNSKNTLYLQMNSLRAEDTAVYYCAKRSGRIAFGALDAWGQGTLVTVSS VL: QTVVTQEPSFSVSPGGTVTLTCGLSSGSVTSSNYPDWYQQTPGQAPRTLIYSTDSRHSGVPDRFSGSILGNKAALTITGAQADDESDYYCGLYMYSGSKNYVFGGGTKLTVL | 192 RU | 0.00339 s⁻¹ | 1.19e+06 M⁻¹ s⁻¹ | 166 RU | 0.00595 s⁻¹ | 1.16e+06 M⁻¹ s⁻¹ | 147 RU | 0.0029 s⁻¹ | 810000 M⁻¹ s⁻¹ | 193 RU | 0.0011 s⁻¹ | 1.25e+06 M⁻¹ s⁻¹ | 157 RU | 0.00192 s⁻¹ | 1.32e+06 M⁻¹ s⁻¹ | 143 RU | 0.00117 s⁻¹ | 840000 M⁻¹ s⁻¹ |  |  | 
3 | X7 Fab (Fab, V domains shown, also called Fab Clone X7) VH: EVQLVESGGGLVQPGGSLRLSCAASGFTLYSSSIHWVRQAPGKGLEWVASISSSYSSTYYADSVKGRFTISADTSKNTAYLQMNSLRAEDTAVYYCARLAGLYHYPGYLGLDYWGQGTLVTVSS VL: DIQMTQSPSSLSASVGDRVTITCRASQSVSSAVAWYQQKPGKAPKLLIYSASSLYSGVPSRFSGSRSGTDFTLTISSLQPEDFATYYCQQSSRSSLLTFGQGTKVEIK |  |  |  |  |  |  |  |  |  |  |  |  |  |  |  |  |  |  | 6 nM | 12 nM | Kd [9]: 4.5 nM; Kd [10]: 16.2 nM
4 | X8 Fab (Fab, V domains shown, also called Fab Clone X8) VH: EVQLVESGGGLVQPGGSLRLSCAASGFTVSSSSIHWVRQAPGKGLEWVASISSSSGSTSYADSVKGRFTISADTSKNTAYLQMNSLRAEDTAVYYCARSWSYHPWYYHVGWYTGLDYWGQGTLVTVSS VL: DIQMTQSPSSLSASVGDRVTITCRASQSVSSAVAWYQQKPGKAPKLLIYSASSLYSGVPSRFSGSRSGTDFTLTISSLQPEDFATYYCQQSSSSLITFGQGTKVEIK |  |  |  |  |  |  |  |  |  |  |  |  |  |  |  |  |  |  | 1.69 nM | 4.7 nM | Kd [9]: 1.4 nM; Kd [10]: 44 nM
